# Results as given in the supplement of paper PMC12042874.
# ± gives the uncertainty stated by the source.
# Assay: amyloid nucleation score (Sup35N fusion, yeast selection) (log enrichment); library NNK2; higher = more nucleation; inactive = no reads after selection
# Method in brief: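 Output and input plasmid inserts were sequenced by Illumina after psi-negative yeast carrying Sup35N fused to peptides of 20 random codons had been induced 24 hours with 100 μM copper sulfate and grown 7 days at 30°C on medium lacking adenine and uracil. The nucleation score is the DiMSum log enrichment of output over input reads, centred on the mode score of non-aggregating sequences. Sequences with under 100 input reads were excluded.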
row,Substance,amyloid nucleation score
1,GNVFEHIQSMIRDSFEEHSG,0.889 ± 0.2
2,GNVRVECANLYRAVLPDMGH,-0.167 ± 0.63
3,GNYNLALDLPLTFERFRQSH,-0.736 ± 0.44
4,GPWGGWSVT,inactive
5,GQAHRFGTHLRISAGVVPPV,0.01 ± 0.32
6,GQLSFCGVVYDISRQEPTIF,inactive
7,GQWGETY,0.476 ± 0.25
8,GQYVQCNMSCVYVFLQWQRR,6.262 ± 0.033
9,GRCPVSRVHGIQRSGDGSVI,-0.383 ± 1.1
10,GRCYDFCHFYKQGRYSLGWV,-1.06 ± 0.63
11,GRGADKLTIG,0.288 ± 0.36
12,GRMLKFLCWRWVVLMSGAPG,inactive
13,GRTYNVTEFLKSRTRWGSPL,1.19 ± 0.59
14,GRVCSRSFL,2.1 ± 0.085
15,GRVFEK,4.93 ± 0.077
16,GRVMMEC,0.465 ± 0.33
17,GRWVST,1.29 ± 0.43
18,GRYILFFSRSEFDFKIVQSV,2.23 ± 0.21
19,GSCRHHRWGLVRGMFCVSAL,1.17 ± 0.42
20,GSDFQFRSSATVLSAVEFLL,-0.227 ± 0.35
21,GSGIIHTVGLGV,-0.153 ± 0.65
22,GSLHVNGVVHVSDCHVTY,1.34 ± 0.53

row,Substance,amyloid nucleation score
1,GSLMRTFHILSIAHSTSWCM,0.381 ± 0.19
2,GSLYVLAMLSGYVAKPYKIY,-0.072 ± 0.79
3,GSPAVGEGG,0.697 ± 0.81
4,GSQYRVWISS,-0.214 ± 0.55
5,GSRVWFEIINL,6.013 ± 0.026
6,GSSRLKGDGIVLVKCSWRYM,1.13 ± 0.38
7,GSWHDWHRCRSLRYDQTNTS,-0.185 ± 0.39
8,GTCCARAIGRYGYFNCRHRM,-0.017 ± 0.34
9,GTCFQTINMGGCLIGGPG,2.69 ± 0.14
10,GTFQSYHDTPEECSFRGKSV,-0.114 ± 1.1
11,GTGLNKHNNSC,0.36 ± 0.19
12,GTILPCNWNNLLYWVVGENA,0.438 ± 0.25
13,GTLPA,-0.747 ± 0.48
14,GTMPNGCKS,0.541 ± 0.74
15,GTPDYGCSSNVYCD,inactive
16,GTRYSLCTRCG,0.766 ± 0.5
17,GVASNGKGFNTFMCAHCY,-0.225 ± 0.41
18,GVDFTWDRGCIGGRGCSSRY,5.956 ± 0.054
19,GVFYDKYRGSVWSEDCKLWT,inactive
20,GVGVGLYKFLTPCFYGEDDE,0.594 ± 0.57
21,GVKWSVSFKNWHYWKSMSVV,1.26 ± 0.66
22,GVMRSCCEIWTFSIVFRMYT,0.604 ± 0.31

row,Substance,amyloid nucleation score
1,GVPCRWTVPNANGSSVWSLR,0.776 ± 0.3
2,GVSASQSTMLNCDNVTEDVS,0.753 ± 0.22
3,GVSGIEVVFYMLSKWGKHER,4.13 ± 0.054
4,GVSIS,-0.116 ± 0.76
5,GVSLLVSTSHGFVREPQVTS,0.526 ± 0.66
6,GVVGSFPRPTSSRGRLDYCN,-0.169 ± 0.55
7,GVVHKDELRGLKVRESSEMG,0.271 ± 0.48
8,GVWICFRSAMNSIKACFNNR,5.395 ± 0.04
9,GWEYYSCGENWSLSPLSGYN,-0.969 ± 0.34
10,GWFKESVFLGFWVRISNSQV,-1.75 ± 1.1
11,GWQWRWLHYRSVRINEEMVS,0.342 ± 0.34
12,GWWVCWVL,-1.07 ± 1.1
13,GYCPLGAPCAGM,1.23 ± 0.2
14,GYCSDGWFAECTEWEAPVSR,0.343 ± 0.64
15,GYHDRLSPSQTLPPTRNVLC,0.312 ± 0.8
16,GYLVRM,-0.186 ± 0.3
17,GYLVTLWD,1.03 ± 0.49
18,GYLYN,-1.32 ± 1.1
19,GYQRNYSFAVSMEARSVVPG,4.12 ± 0.058
20,GYSDYVSYVKGC,0.182 ± 0.8
21,GYTIPLYQYKNWGLE,-0.515 ± 1
22,GYTVCRLGCRFVMSLWNILV,-0.221 ± 1.1

row,Substance,amyloid nucleation score
1,GYWEAFFQLGASPYAGRSRG,-0.13 ± 0.76
2,HAAGSLHMDYLV,0.122 ± 1.1
3,HAILPRCTFHSPMVYALYFT,0.58 ± 0.65
4,HATSMCNWAVFIECFFFGKL,5.39 ± 0.065
5,HCLVIFNEIYRL,7.137 ± 0.071
6,HCMLEYRMIVCVLVYAGYNM,0.448 ± 0.47
7,HCRKQIMMGDFKIQGNRGVG,0.448 ± 0.66
8,HDDRFSCECYSSDSPESQGL,-0.105 ± 1.1
9,HDVSVLYEPTAAGWNRLLQT,0.262 ± 0.54
10,HDYRVTYDVF,-1.24 ± 1.1
11,HEEVLLHGLVCKLHRMKR,0.474 ± 0.26
12,HEYVAALGWMAEGLSKFLKR,0.579 ± 0.8
13,HFIFVAYRWVSNNAELDLNF,-0.724 ± 0.63
14,HFSVMCTTRSKRLSIKPEWR,4.41 ± 0.097
15,HFVNMHH,-0.213 ± 0.76
16,HGCLYFRFLNALSSFGGYRA,-1.7 ± 1
17,HGETTTGILIELFVIWYVNS,inactive
18,HGGPS,-0.571 ± 0.38
19,HGLYCYPGYSDQCVTFVHGY,inactive
20,HIGCYAPASISPLLNGEH,0.458 ± 0.8
21,HIICSRHSNEAKLRMKSKAI,-1.03 ± 0.61
